Assay results as given in patent US20240025993A1 (Novartis, published 2024).
Substitutions are numbered along the chain they refer to. In names and notes the source's numbering stands.

B1: Anti-CD3 human IgG1 antibody, wild type Fc (antibody)
heavy: not shown
light: QAVVTQEPSLTVSPGGTVTLTCRSSTGAVTTSNYANWVQQKPGQAPRGLIGGTNKRAPWTPARFSGSLLGDKAALTLSGAQPEDEAEYFCALWYSNLWVFGGGTKLTVLGQPKAAPSVTLFPPSSEELQANKATLVCLISDFYPGAVTVAWKADSSPVKAGVETTTPSKQSNNKYAASSYLSLTPEQWKSHRSYSCQVTHEGSTVEKTVAPTECS
notes: also called WT; WT IgG1
B2: Anti-CD3 human IgG1 antibody, LALAGA Fc variant (L234A/L235A/G237A) (antibody)
heavy: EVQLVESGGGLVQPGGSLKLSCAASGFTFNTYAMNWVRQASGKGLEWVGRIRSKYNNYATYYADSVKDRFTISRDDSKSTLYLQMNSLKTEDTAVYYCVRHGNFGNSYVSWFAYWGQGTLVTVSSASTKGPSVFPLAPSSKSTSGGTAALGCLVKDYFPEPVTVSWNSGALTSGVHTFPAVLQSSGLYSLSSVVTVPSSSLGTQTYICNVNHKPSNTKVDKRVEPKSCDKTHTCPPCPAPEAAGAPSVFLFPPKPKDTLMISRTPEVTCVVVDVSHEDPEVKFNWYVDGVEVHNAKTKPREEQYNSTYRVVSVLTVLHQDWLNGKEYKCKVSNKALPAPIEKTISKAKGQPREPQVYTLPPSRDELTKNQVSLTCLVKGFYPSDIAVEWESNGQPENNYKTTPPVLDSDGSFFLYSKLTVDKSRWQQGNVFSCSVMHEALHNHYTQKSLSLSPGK
light: B1 light
notes: also called LALAGA-IgG1; FCV-2
B3: Anti-CD3 human IgG1 antibody, R214K allotype (antibody)
heavy: not shown
light: B1 light
notes: also called WT allotype; WT allotype R214K
B4: Anti-CD3 human IgG1 antibody, LALAPA Fc variant (L234A/L235A/P329A) (antibody)
heavy: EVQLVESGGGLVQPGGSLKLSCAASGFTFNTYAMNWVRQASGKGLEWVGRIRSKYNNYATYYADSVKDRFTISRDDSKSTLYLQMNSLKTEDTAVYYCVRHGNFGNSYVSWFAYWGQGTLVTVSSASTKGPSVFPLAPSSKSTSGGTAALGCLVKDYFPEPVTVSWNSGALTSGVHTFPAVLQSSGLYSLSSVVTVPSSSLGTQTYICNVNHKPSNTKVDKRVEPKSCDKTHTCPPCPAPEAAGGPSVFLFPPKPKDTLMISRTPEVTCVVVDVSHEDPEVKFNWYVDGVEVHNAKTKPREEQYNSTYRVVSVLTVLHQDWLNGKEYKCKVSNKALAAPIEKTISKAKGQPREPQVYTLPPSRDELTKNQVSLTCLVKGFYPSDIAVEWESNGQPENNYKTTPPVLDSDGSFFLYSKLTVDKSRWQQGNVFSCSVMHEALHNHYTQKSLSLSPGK
light: B1 light
notes: also called LALAPA-IgG1; FCV-1
B5: Anti-CD3 human IgG1 antibody, LALASKPA Fc variant (L234A/L235A/S267K/P329A) (antibody)
heavy: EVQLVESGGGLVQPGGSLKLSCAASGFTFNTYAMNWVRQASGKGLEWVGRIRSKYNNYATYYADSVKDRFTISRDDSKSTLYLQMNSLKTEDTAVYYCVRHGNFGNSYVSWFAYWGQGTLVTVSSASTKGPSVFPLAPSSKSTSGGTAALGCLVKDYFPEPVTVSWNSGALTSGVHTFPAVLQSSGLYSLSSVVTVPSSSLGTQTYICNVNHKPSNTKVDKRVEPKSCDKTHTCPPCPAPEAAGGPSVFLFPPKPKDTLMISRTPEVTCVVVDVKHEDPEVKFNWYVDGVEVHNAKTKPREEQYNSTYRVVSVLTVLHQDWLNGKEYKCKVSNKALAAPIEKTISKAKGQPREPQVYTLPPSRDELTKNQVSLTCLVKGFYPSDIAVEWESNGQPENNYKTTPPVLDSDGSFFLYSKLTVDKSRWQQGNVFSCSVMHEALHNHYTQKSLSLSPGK
light: B1 light
notes: also called FCV-4
B6: Anti-CD3 human IgG1 antibody, DAPA Fc variant (D265A/P329A) (antibody)
heavy: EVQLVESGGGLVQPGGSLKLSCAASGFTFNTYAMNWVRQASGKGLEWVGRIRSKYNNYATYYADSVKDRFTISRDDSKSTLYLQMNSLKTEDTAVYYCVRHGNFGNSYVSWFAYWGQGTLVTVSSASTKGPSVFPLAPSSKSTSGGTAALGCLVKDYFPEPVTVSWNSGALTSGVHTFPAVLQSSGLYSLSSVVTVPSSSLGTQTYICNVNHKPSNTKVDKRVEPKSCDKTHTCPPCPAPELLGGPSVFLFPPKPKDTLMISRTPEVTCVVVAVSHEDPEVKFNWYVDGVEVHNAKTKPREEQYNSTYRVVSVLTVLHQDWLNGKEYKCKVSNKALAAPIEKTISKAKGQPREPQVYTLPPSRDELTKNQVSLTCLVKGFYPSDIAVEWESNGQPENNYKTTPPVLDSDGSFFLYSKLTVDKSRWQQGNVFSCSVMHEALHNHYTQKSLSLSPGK
light: B1 light
notes: also called DAPA-IgG1; FCV-8
B7: Anti-CD3 human IgG1 antibody, DAPASK Fc variant (D265A/P329A/S267K) (antibody)
heavy: EVQLVESGGGLVQPGGSLKLSCAASGFTFNTYAMNWVRQASGKGLEWVGRIRSKYNNYATYYADSVKDRFTISRDDSKSTLYLQMNSLKTEDTAVYYCVRHGNFGNSYVSWFAYWGQGTLVTVSSASTKGPSVFPLAPSSKSTSGGTAALGCLVKDYFPEPVTVSWNSGALTSGVHTFPAVLQSSGLYSLSSVVTVPSSSLGTQTYICNVNHKPSNTKVDKRVEPKSCDKTHTCPPCPAPELLGGPSVFLFPPKPKDTLMISRTPEVTCVVVAVKHEDPEVKFNWYVDGVEVHNAKTKPREEQYNSTYRVVSVLTVLHQDWLNGKEYKCKVSNKALAAPIEKTISKAKGQPREPQVYTLPPSRDELTKNQVSLTCLVKGFYPSDIAVEWESNGQPENNYKTTPPVLDSDGSFFLYSKLTVDKSRWQQGNVFSCSVMHEALHNHYTQKSLSLSPGK
light: B1 light
notes: also called DAPASK-IgG1; FCV-5
B8: Anti-CD3 human IgG1 antibody, GADAPA Fc variant (G237A/D265A/P329A) (antibody)
heavy: B7 heavy with G245A, K275S
light: B1 light
notes: also called GADAPA-IgG1; FCV-6
B9: Anti-CD3 human IgG1 antibody, LALAPG Fc variant (L234A/L235A/P329G) (antibody)
heavy: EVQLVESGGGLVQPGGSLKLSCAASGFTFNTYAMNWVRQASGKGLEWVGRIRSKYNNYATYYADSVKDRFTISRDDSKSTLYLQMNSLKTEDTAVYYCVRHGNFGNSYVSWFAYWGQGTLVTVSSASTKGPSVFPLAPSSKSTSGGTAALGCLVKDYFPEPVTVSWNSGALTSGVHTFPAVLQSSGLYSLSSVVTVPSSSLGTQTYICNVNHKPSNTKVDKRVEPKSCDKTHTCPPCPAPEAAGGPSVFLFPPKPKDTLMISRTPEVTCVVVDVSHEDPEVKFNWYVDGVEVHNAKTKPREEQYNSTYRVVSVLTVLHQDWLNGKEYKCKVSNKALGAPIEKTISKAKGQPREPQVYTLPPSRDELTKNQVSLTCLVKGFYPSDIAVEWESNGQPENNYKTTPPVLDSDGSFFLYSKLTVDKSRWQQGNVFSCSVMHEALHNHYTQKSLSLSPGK
light: B1 light
notes: also called LALAPG-IgG1; FCV-3
B10: Anti-CD3 human IgG1 antibody, GADAPASK Fc variant (G237A/D265A/P329A/S267K) (antibody)
heavy: B7 heavy with G245A
light: B1 light
notes: also called FCV-7
B11: Anti-CD3 human IgG1 antibody, DANAPA Fc variant (D265A/N297A/P329A) (antibody)
heavy: B7 heavy with K275S, N305A
light: B1 light
notes: Variant made by PCR mutagenesis of the anti-CD3 WT IgG1 heavy chain; also called DANAPA-IgG1; FCV-9
B12: Anti-CD19-CD3 / CD58 trispecific antibody, DANAPA IgG1 Fc (Table 33) (other)
heavy: QVQLVQSGAEVKKPGASVKVSCKASGYTFTTYWIQWVRQAPGQRLEWMGAVYPGDADTRYTQKFQGRVTLTADRSASTAYMELSSLRSEDTAVYYCGRDAGLEYYALDYWGQGTLVTVSSASTKGPSVFPLAPSSKSTSGGTAALGCLVKDYFPEPVTVSWNSGALTSGVHTFPAVLQSSGLYSLSSVVTVPSSSLGTQTYICNVNHKPSNTKVDKRVEPKSCGGGGSGGGGSEVQLVESGGGLVQPGGSLKLSCAASGFTFNTYAMNWVRQASGKGLEWVGRIRSKYNNYATYYADSVKDRFTISRDDSKSTLYLQMNSLKTEDTAVYYCVRHGNFGNSYVSWFAYWGQGTLVTVSSGGGGSGGGGSGGGGSGGGGSQAVVTQEPSLTVSPGGTVTLTCRSSTGAVTTSNYANWVQQKPGQAPRGLIGGTNKRAPWTPARFSGSLLGDKAALTLSGAQPEDEAEYFCALWYSNLWVFGGGTKLTVLGGGGSDKTHTCPPCPAPELLGGPSVFLFPPKPKDTLMISRTPEVTCVVVAVSHEDPEVKFNWYVDGVEVHNAKTKPREEQYASTYRVVSVLTVLHQDWLNGKEYKCKVSNKALAAPIEKTISKAKGQPREPQVCTLPPSREEMTKNQVSLSCAVKGFYPSDIAVEWESNGQPENNYKTTPPVLDSDGSFFLVSKLTVDKSRWQQGNVFSCSVMHEALHNHYTQKSLSLSPGK
chain: SQQIYGVVYGNVTFHVPSNVPLKEVLWKKQKDKVAELENSEFRAFSSFKNRVYLDTVSGSLTIYNLTSSDEDEYEMESPNITDTMKFFLYVLESGGGGSDKTHTCPPCPAPELLGGPSVFLFPPKPKDTLMISRTPEVTCVVVAVSHEDPEVKFNWYVDGVEVHNAKTKPREEQYASTYRVVSVLTVLHQDWLNGKEYKCKVSNKALAAPIEKTISKAKGQPREPQVYTLPPCREEMTKNQVSLWCLVKGFYPSDIAVEWESNGQPENNYKTTPPVLDSDGSFFLYSKLTVDKSRWQQGNVFSCSVMHEALHNHYTQKSLSLSPGK
light: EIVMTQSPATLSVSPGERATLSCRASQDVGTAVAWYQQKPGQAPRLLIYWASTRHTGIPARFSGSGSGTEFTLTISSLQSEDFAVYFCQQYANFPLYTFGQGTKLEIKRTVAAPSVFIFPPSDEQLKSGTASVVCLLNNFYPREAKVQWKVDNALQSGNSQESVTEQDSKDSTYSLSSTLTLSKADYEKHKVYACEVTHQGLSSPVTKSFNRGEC
B13: Anti-CD19-CD3 / CD58 trispecific antibody, GADAPASK IgG1 Fc (Table 33) (other)
heavy: B12 heavy with G509A, S539K, A569N
chain: B12 chain with G116A, S146K, A176N
light: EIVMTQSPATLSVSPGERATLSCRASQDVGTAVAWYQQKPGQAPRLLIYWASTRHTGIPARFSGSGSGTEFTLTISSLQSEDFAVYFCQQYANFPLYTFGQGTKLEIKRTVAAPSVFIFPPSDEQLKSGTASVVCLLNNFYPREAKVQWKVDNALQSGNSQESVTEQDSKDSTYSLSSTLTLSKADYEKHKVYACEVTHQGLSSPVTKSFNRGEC
B14: Anti-CD19-CD3 / CD58 trispecific antibody, LALASKPA IgG1 Fc (Table 33) (other)
heavy: B12 heavy with L506A, L507A, A537D, S539K, A569N
chain: B12 chain with L113A, L114A, A144D, S146K, A176N
light: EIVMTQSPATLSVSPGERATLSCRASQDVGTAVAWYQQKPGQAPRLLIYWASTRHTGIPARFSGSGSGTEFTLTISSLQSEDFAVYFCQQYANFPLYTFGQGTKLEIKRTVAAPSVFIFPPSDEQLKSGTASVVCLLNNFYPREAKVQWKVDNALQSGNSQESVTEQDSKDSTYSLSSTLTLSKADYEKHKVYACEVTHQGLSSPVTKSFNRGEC

target: T1, human Fc gamma receptor 3A, V158 variant (human, UniProt P08637 17-208); test: SPR (Biacore T200), antibody amine-coupled on CM5 chip, receptor as analyte
T1 construct: also called hFcgammaRIIIA V158; FcγR3A (V158)
Procedure: (§1) Binding to human C1q was evaluated. All SPR buffers were prepared using deionized water. The samples were prepared in running buffer PBS pH 7.4 with 0.005% Tween-20. SPR measurements were measured on a Biacore T200 (GE-Healthcare Life Sciences) controlled by Biacore T200 control software version 2.0.1. Surface plasmon resonance was conducted using a Biacore T200 to assess binding affinity of antibody IgG1 WT and variants to human Fc receptors, including FcγR1A, and FcγR3A (V158) and human C1q.
(§2) The antibodies were covalently immobilized on a CM5 sensor chip whereas Fc gamma receptors or human C1q served as analytes in solution (FIG. 38). For Fc gamma receptors binding evaluation (method 1), antibodies were diluted in 10 mM sodium acetate pH 4 and immobilized at a density of approximately 950 resonance units (RU's) on the CM5 sensor chip applying a standard amine coupling procedure. Flow cell 1 was blank immobilized to serve as a reference. The kinetic binding data were collected by subsequent injections of 1:2 dilution series of the human Fc gamma receptors on all flow cells at a flow rate of 30 μl/min and at a temperature of 25° C. The Fc gamma receptors were diluted in the running buffer at concentrations ranging from 0.2 nM to 1000 nM (e.g. FcγR1A: 0.2 to 100 nM, FcγR3A V158: 1.95 to 1000 nM). The chip surface was regenerated using 20 mM glycine pH 2.0 solution after each measuring cycle. For human C1q binding evaluation (method 2), antibodies were diluted in 10 mM sodium acetate pH 4 and immobilized at a density of approximately 7000 resonance units (RU's) on the CM5 sensor chip applying a standard amine coupling procedure. Flow cell 1 was blank immobilized to serve as a reference. The kinetic binding data were collected by subsequent injections of 1:2 dilution series of the human C1q on all flow cells at a flow rate of 30 μl/min and at a temperature of 25° C. The human C1q was diluted in the running buffer at concentrations ranging from 0.49 nM to 250 nM. The chip surface was regenerated using 50 mM NaOH solution after each measuring cycle. Zero concentration samples (blank runs) were measured for both methods to allow double-referencing during data evaluation.
(§3) Data were evaluated using the Biacore T200 evaluation software.

T1 sequence (P08637 other isoform, or with tags, fused parts or gaps mutant): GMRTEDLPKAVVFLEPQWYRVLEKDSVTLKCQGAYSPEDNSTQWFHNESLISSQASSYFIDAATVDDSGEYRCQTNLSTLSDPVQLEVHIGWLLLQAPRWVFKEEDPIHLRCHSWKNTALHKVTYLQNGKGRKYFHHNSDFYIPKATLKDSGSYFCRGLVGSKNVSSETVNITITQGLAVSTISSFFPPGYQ

Question: With B1 as the binder, how does the “Maximum response at 1000 nM hFcgammaRIIIA V158 (RU)” value read?
Answer: Its value is 79 RU.

Question: Which “Maximum response at 1000 nM hFcgammaRIIIA V158 (RU)” value does the source give for B2 here?
Answer: The value was 25 RU.

Question: How did the “Maximum response at 1000 nM hFcgammaRIIIA V158 (RU)” value turn out when B3 was run?
Answer: The value was 72 RU.

Question: Which “Maximum response at 1000 nM hFcgammaRIIIA V158 (RU)” value does the source give for B4 here?
Answer: Its value is 19 RU.

Question: How did the “Maximum response at 1000 nM hFcgammaRIIIA V158 (RU)” value turn out when B5 was run?
Answer: Its value is 20 RU.

Question: With B6 as the binder, how does the “Maximum response at 1000 nM hFcgammaRIIIA V158 (RU)” value read?
Answer: The value was 15 RU.

Question: For B7, which “Maximum response at 1000 nM hFcgammaRIIIA V158 (RU)” value is on record?
Answer: The value was 15 RU.

Question: How did the “Maximum response at 1000 nM hFcgammaRIIIA V158 (RU)” value turn out when B8 was run?
Answer: The value was 9 RU.

Question: With B9 as the binder, how does the “Maximum response at 1000 nM hFcgammaRIIIA V158 (RU)” value read?
Answer: Its value is 33 RU.

Question: For B10, which “Maximum response at 1000 nM hFcgammaRIIIA V158 (RU)” value is on record?
Answer: Its value is 12 RU.

Question: Which “Maximum response at 1000 nM hFcgammaRIIIA V158 (RU)” value does the source give for B11 here?
Answer: The value was 31 RU.

target: T2, human Fc gamma receptor 1A (human, UniProt P12314 16-288, limits assumed); test: as above
T2 construct: also called hFcgammaRIA; hFcγRIA
Procedure: as §1, §2, §3

T2 sequence (P12314 16-288 limits assumed): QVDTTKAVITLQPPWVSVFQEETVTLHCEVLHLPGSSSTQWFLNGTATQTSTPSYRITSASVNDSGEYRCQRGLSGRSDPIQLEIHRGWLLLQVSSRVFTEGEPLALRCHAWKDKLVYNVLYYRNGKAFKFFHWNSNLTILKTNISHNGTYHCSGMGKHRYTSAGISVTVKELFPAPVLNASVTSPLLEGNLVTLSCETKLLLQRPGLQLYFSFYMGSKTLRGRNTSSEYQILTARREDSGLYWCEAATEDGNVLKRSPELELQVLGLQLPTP

Question: How did the “Maximum response at 100 nM hFcgammaRIA (RU)” value turn out when B1 was run?
Answer: Its value is 193 RU.

Question: B3 was tested. Which “Maximum response at 100 nM hFcgammaRIA (RU)” value did it give?
Answer: Its value is 193 RU.

Question: For B4, which “Maximum response at 100 nM hFcgammaRIA (RU)” value is on record?
Answer: The value was 26 RU.

Question: How did the “Maximum response at 100 nM hFcgammaRIA (RU)” value turn out when B6 was run?
Answer: The value was 63 RU.

target: T2, human Fc gamma receptor 1A; test: SPR (Biacore T200), antibody amine-coupled on CM5 chip, human FcγRIA as analyte; maximum response (RU)
Procedure: Surface plasmon resonance was conducted using a Biacore T200 to assess binding affinity of antibody WT and variants to human FcγR1A.
The antibodies were covalently immobilized on a CM5 sensor chip whereas Fc gamma receptor 1A served as analyte in solution (FIG. 38). Antibodies were diluted in 10 mM sodium acetate pH 4 and immobilized at a density of approximately 950 resonance units (RU) on the CM5 sensor chip applying a standard amine coupling procedure. Flow cell 1 was blank immobilized to serve as a reference. The kinetic binding data were collected by subsequent injections of 1:2 dilution series of the human Fc gamma receptor 1A on all flow cells at a flow rate of 30 μl/min and at a temperature of 25° C. […] The chip surface was regenerated using 20 mM glycine pH 2.0 solution after each measuring cycle. Zero concentration samples (blank runs) were measured to allow double-referencing during data evaluation.
Data were evaluated using the Biacore T200 evaluation software. The raw data were double referenced, i.e. the response of the measuring flow cell was corrected for the response of the reference flow cell, and in a second step the response of a blank injection was subtracted. Then the sensorgrams were fitted by applying a 1:1 kinetic binding model to calculate dissociation equilibrium constants. In addition, the maximum response reached during the experiment was monitored. Maximum response describes the binding capacity of the surface in terms of the response at saturation.

Question: Does B12 bind?
Answer: Result: no binding (tested: 25 nM)

Question: Does B13 bind?
Answer: Result: no binding (tested: 25 nM)

Question: Does B14 bind?
Answer: Result: no binding (tested: 25 nM)

target: T3, human C1q (human, UniProt P02745 23-245; P02746 28-253; P02747 29-245); test: SPR (Biacore T200), antibody amine-coupled on CM5 chip, C1q as analyte
T3 construct: also called hC1q
Procedure: as §1, §2, §3

T3 sequence (P02745 23-245 limits assumed, chain 1 of 3): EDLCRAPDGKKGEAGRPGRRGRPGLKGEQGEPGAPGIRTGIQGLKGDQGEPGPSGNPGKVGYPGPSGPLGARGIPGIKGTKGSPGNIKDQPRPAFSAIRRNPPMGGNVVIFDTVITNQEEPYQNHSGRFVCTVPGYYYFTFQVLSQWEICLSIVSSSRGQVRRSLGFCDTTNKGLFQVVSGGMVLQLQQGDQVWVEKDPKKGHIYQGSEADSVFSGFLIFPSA
T3 sequence (P02746 28-253 limits assumed, chain 2 of 3): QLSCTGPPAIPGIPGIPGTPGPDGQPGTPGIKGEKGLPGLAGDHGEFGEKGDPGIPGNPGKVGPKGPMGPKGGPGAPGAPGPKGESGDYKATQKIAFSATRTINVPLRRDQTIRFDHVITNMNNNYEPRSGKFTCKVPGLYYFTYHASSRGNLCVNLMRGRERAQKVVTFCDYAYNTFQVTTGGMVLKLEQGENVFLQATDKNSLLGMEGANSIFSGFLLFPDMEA
T3 sequence (P02747 29-245 limits assumed, chain 3 of 3): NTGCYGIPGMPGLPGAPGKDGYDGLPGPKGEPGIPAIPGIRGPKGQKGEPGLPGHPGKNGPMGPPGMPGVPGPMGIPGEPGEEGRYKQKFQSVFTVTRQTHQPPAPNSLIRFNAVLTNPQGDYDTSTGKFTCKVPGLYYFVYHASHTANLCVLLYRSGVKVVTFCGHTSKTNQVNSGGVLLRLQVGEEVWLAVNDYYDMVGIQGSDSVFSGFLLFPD

Question: B1 was tested. Which “Maximum response at 250 nM hC1q (RU)” value did it give?
Answer: The value was 680 RU.

Question: B2 was tested. Which “Maximum response at 250 nM hC1q (RU)” value did it give?
Answer: The value was 335 RU.

Question: Which “Maximum response at 250 nM hC1q (RU)” value does the source give for B3 here?
Answer: Its value is 640 RU.

Question: For B4, which “Maximum response at 250 nM hC1q (RU)” value is on record?
Answer: Its value is 270 RU.

Question: How did the “Maximum response at 250 nM hC1q (RU)” value turn out when B5 was run?
Answer: Its value is 95 RU.

Question: How did the “Maximum response at 250 nM hC1q (RU)” value turn out when B6 was run?
Answer: The value was 85 RU.

Question: For B7, which “Maximum response at 250 nM hC1q (RU)” value is on record?
Answer: The value was 86 RU.

Question: With B8 as the binder, how does the “Maximum response at 250 nM hC1q (RU)” value read?
Answer: Its value is 203 RU.

Question: How did the “Maximum response at 250 nM hC1q (RU)” value turn out when B9 was run?
Answer: The value was 245 RU.

Question: For B10, which “Maximum response at 250 nM hC1q (RU)” value is on record?
Answer: Its value is 168 RU.

Question: B11 was tested. Which “Maximum response at 250 nM hC1q (RU)” value did it give?
Answer: The value was 29 RU.
